Test results as given in US20180118789A1 (REGENTS OF THE UNIVERSITY OF MINNESOTA, published 2018).
Non-standard residues stand in square brackets, D forms with d. Dap = NC[C@H](N)C(=O)O

Tests used:
Assay in all cases: cell-based or functional assay
[1] = biological target: T1, mouse melanocortin 4 receptor (mouse, UniProt P56450 1-332)
[2] = biological target: T2, mouse melanocortin 5 receptor (mouse, UniProt P41149 1-325)
[3] = biological target: T3, mouse melanocortin 1 receptor (mouse, UniProt Q01727 1-315)
T3 sequence (Q01727 whole entry): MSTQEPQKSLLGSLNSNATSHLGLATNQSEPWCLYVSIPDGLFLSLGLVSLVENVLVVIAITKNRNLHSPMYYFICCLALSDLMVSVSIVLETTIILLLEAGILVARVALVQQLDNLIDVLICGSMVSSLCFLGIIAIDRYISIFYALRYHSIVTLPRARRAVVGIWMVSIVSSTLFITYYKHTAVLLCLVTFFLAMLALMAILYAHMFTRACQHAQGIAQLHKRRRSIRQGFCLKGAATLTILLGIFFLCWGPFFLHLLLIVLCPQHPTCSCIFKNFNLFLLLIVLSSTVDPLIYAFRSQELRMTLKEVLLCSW

[4] = biological target: T4, mouse melanocortin 3 receptor (mouse, UniProt P33033 1-323)
T4 sequence (P33033 whole entry): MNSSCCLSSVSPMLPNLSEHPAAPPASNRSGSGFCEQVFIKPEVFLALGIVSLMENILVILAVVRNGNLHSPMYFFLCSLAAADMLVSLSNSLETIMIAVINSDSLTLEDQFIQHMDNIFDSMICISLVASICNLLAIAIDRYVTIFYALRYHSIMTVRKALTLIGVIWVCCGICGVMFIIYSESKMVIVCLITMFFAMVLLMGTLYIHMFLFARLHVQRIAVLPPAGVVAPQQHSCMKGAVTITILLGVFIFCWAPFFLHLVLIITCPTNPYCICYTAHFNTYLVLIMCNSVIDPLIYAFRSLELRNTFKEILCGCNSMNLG

[5] = biological target: T1, mouse melanocortin 4 receptor; remark: listed apart in the source
[6] = biological target: T2, mouse melanocortin 5 receptor; remark: listed apart in the source
[7] = biological target: T3, mouse melanocortin 1 receptor; remark: listed apart in the source
[8] = biological target: T4, mouse melanocortin 3 receptor; remark: listed apart in the source

T2 sequence (P41149 whole entry): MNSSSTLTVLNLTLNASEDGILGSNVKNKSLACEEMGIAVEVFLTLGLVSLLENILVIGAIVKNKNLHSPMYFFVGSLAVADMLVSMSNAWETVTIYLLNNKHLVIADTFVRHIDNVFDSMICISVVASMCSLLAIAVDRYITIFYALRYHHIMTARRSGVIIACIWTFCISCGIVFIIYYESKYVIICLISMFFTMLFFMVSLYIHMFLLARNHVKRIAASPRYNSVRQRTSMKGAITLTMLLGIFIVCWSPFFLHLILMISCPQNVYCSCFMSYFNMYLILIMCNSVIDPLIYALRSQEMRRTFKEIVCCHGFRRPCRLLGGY
T1 sequence (P56450 whole entry): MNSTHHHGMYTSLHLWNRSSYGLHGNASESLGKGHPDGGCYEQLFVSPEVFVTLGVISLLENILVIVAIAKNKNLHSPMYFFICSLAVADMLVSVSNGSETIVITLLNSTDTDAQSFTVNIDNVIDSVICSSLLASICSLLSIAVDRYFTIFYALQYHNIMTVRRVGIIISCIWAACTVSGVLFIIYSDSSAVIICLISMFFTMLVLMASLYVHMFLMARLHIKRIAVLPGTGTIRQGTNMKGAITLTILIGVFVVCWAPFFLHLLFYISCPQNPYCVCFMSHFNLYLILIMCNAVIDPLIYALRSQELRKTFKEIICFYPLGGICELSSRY

B1: MDE6-10-2c, c[Pro-His-DPhe-Arg-Trp-Asn-DPro] (peptide)
peptide: cyclo(PH[dF]RWN[dP])
modifications: also: TFA salt
- EC50 (nM), agonist, cAMP AlphaScreen [1]: 170 nM
- EC50 (nM), agonist, cAMP AlphaScreen [2]: 16.8 nM
- EC50 (nM), agonist, cAMP AlphaScreen [3]: 50 nM
- apparent EC50 (nM), partial agonist, cAMP AlphaScreen [4]: 510 nM
- partial agonist, percent maximal NDP stimulation [4]: 65%
- fold decrease of agonist potency relative to MDE5-149-2c [5]: 121 fold
- fold decrease of agonist potency relative to MDE5-149-2c [6]: 37 fold
- fold decrease of agonist potency relative to MDE5-149-2c [7]: 143 fold

B2: MDE6-3-2c, c[Pro-His-DPhe-Arg-Trp-Asn-Ala-DPro] (peptide)
peptide: cyclo(PH[dF]RWNA[dP])
modifications: also: TFA salt
- EC50 (nM), agonist, cAMP AlphaScreen [1]: 29 nM
- EC50 (nM), agonist, cAMP AlphaScreen [2]: 2.1 nM
- EC50 (nM), agonist, cAMP AlphaScreen [3]: 12 nM
- EC50 (nM), agonist, cAMP AlphaScreen [4]: 300 nM
- fold loss of agonist potency relative to MDE5-149-2c [5]: 21 fold
- fold loss of agonist potency relative to MDE5-149-2c [6]: 5 fold
- fold loss of agonist potency relative to MDE5-149-2c [7]: 34 fold
- fold loss of agonist potency relative to MDE5-149-2c [8]: 9 fold

B3: MDE5-149-2c, c[Pro-His-DPhe-Arg-Trp-Asn-Ala-Phe-DPro] (peptide)
peptide: cyclo(PH[dF]RWNAF[dP])
modifications: also: TFA salt
- EC50 (nM), agonist, cAMP AlphaScreen [1]: 1.4 nM
- EC50 (nM), agonist, cAMP AlphaScreen [2]: 0.45 nM
- EC50 (nM), agonist, cAMP AlphaScreen [3]: 0.35 nM
- EC50 (nM), agonist, cAMP AlphaScreen [4]: 32 nM

B4: MDE5-147-2c, c[Pro-His-DPhe-Arg-Trp-DPro] (peptide)
peptide: cyclo(PH[dF]RW[dP])
modifications: also: TFA salt
- percent maximal stimulatory response observed at 100 µM [1]: 65%
- EC50 (nM), agonist, cAMP AlphaScreen [2]: 6000 nM
- EC50 (nM), agonist, cAMP AlphaScreen [3]: 900 nM
- percent maximal stimulatory response observed at 100 µM [4]: 60%

B5: MDE5-149-1c, c[Pro-DPhe-Arg-Trp-Asn-Ala-Phe-DPro] (peptide)
peptide: cyclo(P[dF]RWNAF[dP])
modifications: also: TFA salt
- EC50 (nM), agonist, cAMP AlphaScreen [1]: 130 nM
- EC50 (nM), agonist, cAMP AlphaScreen [2]: 40 nM
- EC50 (nM), agonist, cAMP AlphaScreen [3]: 400 nM
- percent maximal stimulatory response observed at 100 µM [4]: 45%
- fold decreased potency relative to MDE5-149-2c [5]: 90 fold
- fold decreased potency relative to MDE5-149-2c [6]: 90 fold
- fold decreased potency relative to MDE5-149-2c [7]: 1140 fold

B6: MDE5-147-1c, c[Pro-DPhe-Arg-Trp-DPro] (peptide)
peptide: cyclo(P[dF]RW[dP])
modifications: also: TFA salt
- percent maximal stimulatory response observed at 100 µM [1]: 50%
- percent maximal stimulatory response observed at 100 µM [2]: 75%
- EC50 (nM), agonist, cAMP AlphaScreen [3]: 1800 nM
- EC50 (nM), agonist, cAMP AlphaScreen (lacked agonist activity at up to 100 µM) [4]: > 100000 nM

B7: MDE6-12-1c, c[Pro-DPhe-Arg-Trp-Dap-DPro] (peptide)
peptide: cyclo(P[dF]RW[Dap][dP])
modifications: also: TFA salt
- percent maximal stimulatory response observed at 100 µM [1]: 35%
- EC50 (nM), agonist, cAMP AlphaScreen (lacked agonist activity at up to 100 µM) [2]: > 100000 nM
- apparent EC50 (nM), partial agonist, cAMP AlphaScreen [3]: 110 nM
- partial agonist, percent maximal NDP stimulation [3]: 75%
- EC50 (nM), agonist, cAMP AlphaScreen (lacked agonist activity at up to 100 µM) [4]: > 100000 nM

B8: MDE5-151-1c, c[Pro-DPhe-Arg-Trp-Dap-Ala-Phe-DPro] (peptide)
peptide: cyclo(P[dF]RW[Dap]AF[dP])
modifications: also: TFA salt
- EC50 (nM), agonist, cAMP AlphaScreen [1]: 100 nM
- EC50 (nM), agonist, cAMP AlphaScreen [2]: 46 nM
- apparent EC50 (nM), partial agonist, cAMP AlphaScreen [3]: 190 nM
- partial agonist, percent maximal NDP stimulation [3]: 45%
- apparent EC50 (nM), partial agonist, cAMP AlphaScreen [4]: 3000 nM
- partial agonist, percent maximal NDP stimulation [4]: 70%

B9: MDE6-5-1c, c[Pro-DPhe-Arg-Trp-Dap-Ala-DPro] (peptide)
peptide: cyclo(P[dF]RW[Dap]A[dP])
modifications: also: TFA salt
- EC50 (nM), agonist, cAMP AlphaScreen [1]: 150 nM
- EC50 (nM), agonist, cAMP AlphaScreen [2]: 48 nM
- EC50 (nM), agonist, cAMP AlphaScreen [3]: 600 nM
- percent maximal stimulatory response observed at 100 µM [4]: 70%

B10: MDE6-5-2c, c[Pro-His-DPhe-Arg-Trp-Dap-Ala-DPro] (peptide)
peptide: cyclo(PH[dF]RW[Dap]A[dP])
modifications: also: TFA salt
- EC50 (nM), agonist, cAMP AlphaScreen [1]: 1.6 nM
- EC50 (nM), agonist, cAMP AlphaScreen [2]: 0.3 nM
- EC50 (nM), agonist, cAMP AlphaScreen [3]: 1.1 nM
- EC50 (nM), agonist, cAMP AlphaScreen [4]: 40 nM

B11: MDE6-3-1c, c[Pro-DPhe-Arg-Trp-Asn-Ala-DPro] (peptide)
peptide: cyclo(P[dF]RWNA[dP])
modifications: also: TFA salt
- EC50 (nM), agonist, cAMP AlphaScreen [1]: 420 nM
- EC50 (nM), agonist, cAMP AlphaScreen [2]: 70 nM
- EC50 (nM), agonist, cAMP AlphaScreen [3]: 500 nM
- percent maximal stimulatory response observed at 100 µM [4]: 55%

B12: MDE6-12-2c, c[Pro-His-DPhe-Arg-Trp-Dap-DPro] (peptide)
peptide: cyclo(PH[dF]RW[Dap][dP])
modifications: also: TFA salt
- EC50 (nM), agonist, cAMP AlphaScreen [1]: 950 nM
- EC50 (nM), agonist, cAMP AlphaScreen [2]: 330 nM
- EC50 (nM), agonist, cAMP AlphaScreen [3]: 460 nM
- percent maximal stimulatory response observed at 100 µM [4]: 65%
- fold decrease of agonist potency relative to MDE6-5-2c [5]: 593 fold
- fold decrease of agonist potency relative to MDE6-5-2c [6]: 1100 fold
- fold decrease of agonist potency relative to MDE6-5-2c [7]: 418 fold

B13: MDE5-151-2c, c[Pro-His-DPhe-Arg-Trp-Dap-Ala-Phe-DPro] (peptide)
peptide: cyclo(PH[dF]RW[Dap]AF[dP])
modifications: also: TFA salt
- apparent EC50 (nM), partial agonist, cAMP AlphaScreen [1]: 23 nM
- partial agonist, percent maximal NDP stimulation [1]: 70%
- EC50 (nM), agonist, cAMP AlphaScreen [2]: 18 nM
- EC50 (nM), agonist, cAMP AlphaScreen [3]: 24 nM
- EC50 (nM), agonist, cAMP AlphaScreen [4]: 260 nM
- fold decreased potency relative to MDE5-149-2c [7]: 70 fold

B14: MDE6-10-1c, c[Pro-DPhe-Arg-Trp-Asn-DPro] (peptide)
peptide: cyclo(P[dF]RWN[dP])
modifications: also: TFA salt
- EC50 (nM), agonist, cAMP AlphaScreen [1]: 1100 nM
- percent maximal stimulatory response observed at 100 µM [2]: 25%
- EC50 (nM), agonist, cAMP AlphaScreen [3]: 40 nM
- EC50 (nM), agonist, cAMP AlphaScreen (lacked agonist activity at up to 100 µM) [4]: > 100000 nM
- fold decrease of agonist potency against MDE5-149-1c [5]: 8 fold
- fold increase of agonist potency over MDE5-149-1c [7]: 10 fold
